Results on one molecule are retold here after paper PMC5902676 (Biochemical Journal, 2018).

This test deals with T1, HybC (large subunit of E. coli Hydrogenase-2), processed form of 552 residues (E. coli, UniProt P0ACE0 1-552).
T1 sequence (looked up): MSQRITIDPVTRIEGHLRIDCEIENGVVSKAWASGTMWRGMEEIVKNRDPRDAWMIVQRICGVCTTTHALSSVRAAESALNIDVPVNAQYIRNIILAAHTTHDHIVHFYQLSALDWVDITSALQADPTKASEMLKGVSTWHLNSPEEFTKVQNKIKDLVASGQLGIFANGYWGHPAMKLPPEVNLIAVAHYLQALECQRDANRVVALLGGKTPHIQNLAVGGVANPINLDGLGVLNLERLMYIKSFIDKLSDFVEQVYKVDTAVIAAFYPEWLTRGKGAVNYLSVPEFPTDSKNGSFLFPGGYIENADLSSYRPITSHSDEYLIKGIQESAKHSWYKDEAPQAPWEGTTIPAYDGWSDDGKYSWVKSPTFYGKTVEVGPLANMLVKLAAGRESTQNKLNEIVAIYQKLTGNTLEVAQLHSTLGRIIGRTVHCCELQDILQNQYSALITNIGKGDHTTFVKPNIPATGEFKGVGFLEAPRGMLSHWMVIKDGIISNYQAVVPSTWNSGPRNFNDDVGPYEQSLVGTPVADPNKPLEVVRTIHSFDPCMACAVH
Briefly: crystal structure.

B1: HybO ΔTat ΔTM with C-terminal His-tag (small subunit of E. coli Hydrogenase-2, encoded by plasmid pO^C) (domain or fragment, UniProt P69741 38-330, looked up)
chain: EMAESVTNPQRPPVIWIGAQECTGCTESLLRATHPTVENLVLETISLEYHEVLSAAFGHQVEENKHNALEKYKGQYVLVVDGSIPLKDNGIYCMVAGEPIVDHIRKAAEGAAAIIAIGSCSAWGGVAAAGVNPTGAVSLQEVLPGKTVINIPGCPPNPHNFLATVAHIITYGKPPKLDDKNRPTFAYGRLIHEHCERRPHFDAGRFAKEFGDEGHREGWCLYHLGCKGPETYGNCSTLQFCDVGGVWPVAIGHPCYGCNEEGIGFHKGIHQLANVENQTPRSQKPDVNAKEGG
With B1, the binding result is on record as “binds”.
